Experimental data taken from patent US20150126390A1.

Target: tau-CFP/YFP protein biosensors (UniProt P10636)
Assay: cell-based or functional assay

tau-CFP/YFP protein biosensors, sequence (P10636 561-689, form in doubt): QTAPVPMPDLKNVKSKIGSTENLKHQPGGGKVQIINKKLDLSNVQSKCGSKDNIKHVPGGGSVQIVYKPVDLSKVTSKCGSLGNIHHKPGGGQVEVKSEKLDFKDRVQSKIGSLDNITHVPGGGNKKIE
recombinant full-length (2N,4R) tau fibrils, preparation A (8 µM heparin, 37° C.), sequence (P10636 other isoform, or with tags, fused parts or gaps limits assumed): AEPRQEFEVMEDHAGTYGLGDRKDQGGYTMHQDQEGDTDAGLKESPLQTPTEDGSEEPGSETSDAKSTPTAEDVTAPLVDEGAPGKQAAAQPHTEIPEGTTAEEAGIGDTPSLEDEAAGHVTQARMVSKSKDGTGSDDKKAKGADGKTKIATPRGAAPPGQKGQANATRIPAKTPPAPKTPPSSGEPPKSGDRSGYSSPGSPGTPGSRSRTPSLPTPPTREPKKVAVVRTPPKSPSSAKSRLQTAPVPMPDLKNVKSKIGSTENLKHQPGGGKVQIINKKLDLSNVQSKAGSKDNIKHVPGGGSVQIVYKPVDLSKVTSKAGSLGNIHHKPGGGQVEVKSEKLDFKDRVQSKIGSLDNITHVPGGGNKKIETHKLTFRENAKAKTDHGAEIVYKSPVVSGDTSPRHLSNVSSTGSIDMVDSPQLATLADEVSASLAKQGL
recombinant full-length (2N,4R) tau fibrils, preparation C (50 µM octadecyl sulfate, 37° C.), sequence (P10636 other isoform, or with tags, fused parts or gaps limits assumed): as above
recombinant full-length (2N,4R) tau fibrils, preparation B (8 µM heparin, 22° C.), sequence (P10636 other isoform, or with tags, fused parts or gaps limits assumed): as above

Substance | EC50 (pM) of seeding, FRET flow cytometry in biosensor cell line [pM] | Plateau (fold increase) of seeding, FRET flow cytometry in biosensor cell line (fold increase)
recombinant full-length (2N,4R) tau fibrils, preparation A (8 µM heparin, 37° C.) (from UniProt P10636 2-441) | < 1 | 6.67
recombinant full-length (2N,4R) tau fibrils, preparation B (8 µM heparin, 22° C.) (from UniProt P10636 2-441) | 4.3 | 6.55
recombinant full-length (2N,4R) tau fibrils, preparation C (50 µM octadecyl sulfate, 37° C.) (from UniProt P10636 2-441) | 141 | 4.19
